Results as given in article PMC6737233, “A novel epitope-presenting thermostable scaffold for the development of highly specific insulin-like growth factor-1/2 antibodies” (The Journal of Biological Chemistry, 2019).

Legend:
[1] = biological target: T1, IGF-1 linear sequence stretch Lys75 to Arg84 (on 15-mer array peptides) (Homo sapiens (Human).); assay: peptide or protein array; Intavis CelluSpots slides with 15-mer peptides (off-set 1) of human IGF-1, and an alanine scan; 1 μg/ml antibody in TBST, ambient temperature, 2 h; HRP secondary antibody, chemiluminescence
T1 construct: human IGF-1, stretch Lys75–Arg84 (numbers on UniProtKB P05019), mapped with 15-mer peptides off-set by 1 amino acid; The peptides on the array were 15 amino acids long; source: synthetic peptide, spotted on Intavis CelluSpots glass slides
T1 chain: KPTGYGSSSR

[2] = biological target: T2, human recombinant IGF-1 (insulin-like growth factor 1) (Homo sapiens (Human)., UniProt P05019); assay: SPR; Biacore T200, 25 °C, HBS-EP (10 mM HEPES pH 7.4, 150 mM NaCl, 1 mM EDTA, 0.05% Tween 20); mAb from clone culture supernatant captured by immobilised polyclonal rabbit anti-mouse IgG on CM5; analytes injected at 90, 30, 10, 3.3, 1.1, 0 nM, in triplicate; dissociation 5, 30 or 120 min (IGF-1 on anti–IGF-1: 120 min); 1:1 Langmuir fit; conditions: one partner purified
T2 construct: insulin-like growth factor 1, human, mature 70-amino acid polypeptide hormone (7.7 kDa; 7.6-kDa recombinant analyte); loop positions 74–90 are counted on UniProtKB P05019; Two suppliers are named (PeproTech for SPR, Roche Penzberg for ECLIA); They are kept as one molecule because both are recombinant mature human IGF-1; also called mature human IGF-1; source: bought: PeproTech (100-11) (SPR); …
T2 sequence (P05019 49-118): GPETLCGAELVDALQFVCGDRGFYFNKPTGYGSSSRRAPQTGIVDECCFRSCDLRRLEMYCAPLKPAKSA

[3] = biological target: T3, human recombinant IGF-2 (insulin-like growth factor 2) (Homo sapiens (Human)., UniProt P01344); assay: as above; conditions: one partner purified
T3 construct: insulin-like growth factor 2, human, mature 67-amino acid peptide (7.5 kDa; 7.2-kDa recombinant analyte); loop positions 53–65 are counted on UniProtKB P01344; also called mature IGF-2; source: bought: PeproTech (100-12)
T3 sequence (P01344 25-91): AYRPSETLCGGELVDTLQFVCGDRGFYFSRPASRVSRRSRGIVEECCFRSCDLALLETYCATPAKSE

[4] = biological target: T2, human recombinant IGF-1 (insulin-like …); assay: as above; conditions: one partner purified; remark: listed apart in the source
TtSlyD-IGF-1(74–90) = biological target: T4, TtSlyD-IGF-1(74–90) (Thermus thermophilus (strain ATCC …)); assay: as above; conditions: one partner purified
T4 construct: Thermus thermophilus SlyD, FKBP domain upstream of the insertion site (Nt-SlyD-FKBP); the printed cell begins with the MRGS tag, which replaces Met1; single glycine linker; human IGF-1 loop, positions 74–90 of UniProtKB P05019, grafted in place of the IF domain (TtSlyD residues 67–121); Thermus thermophilus SlyD, FKBP domain downstream of the insertion site (Ct-SlyD-FKBP), from Ala122; The SPR …
T4 chain: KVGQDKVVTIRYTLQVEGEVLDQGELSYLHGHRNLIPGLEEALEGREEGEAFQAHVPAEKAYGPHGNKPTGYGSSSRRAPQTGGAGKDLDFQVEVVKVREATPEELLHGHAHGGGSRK

binding result [1]: binds
t1/2 diss [2]: 11.3 h
binding result [3]: no binding (tested: 90 nM)
Kd [4]: 0.0055 nM
koff [4]: 1.7e-05 s⁻¹
kon [4]: 3e+06 M⁻¹ s⁻¹
Kd (TtSlyD-IGF-1(74–90)): 0.031 nM
koff (TtSlyD-IGF-1(74–90)): 2.8e-05 s⁻¹
kon (TtSlyD-IGF-1(74–90)): 920000 M⁻¹ s⁻¹
B1: mAb anti–IGF-1(74–90) (antibody, V domains shown)
VH: QVQLQQSGAELVRPGSSVKISCKASGYAFSNLWMNWVKQRPGQGLEWIGQIYPGDGDTNYYGDFKGKATLTADSSSSTAYMQLSRLTSEDSAVYFCARIGYYGMDYWGQGTSVTVSS
VL: DVVLTQTPLSLPVNIGDEASISCKSTKSLLSSDGLTYLDWYLQKPGQSPQVLIYLVSNRFSGVPDRFSGSGSGTDFTLKISRVEAEDLGVYYCFQSNYLPTFGAGTKLELK
notes: Murine monoclonal antibody raised with TtSlyD-IGF-1(74–90); In the ECLIA it stood as a biotinylated or ruthenylated conjugate (lysine ε-amino groups); also called mAb IGF-1(74–90); anti–IGF-1 antibody; source: mouse hybridoma; clone culture supernatant captured on the sensor (SPR); purified from the cell culture supernatant (immunoconjugates for ECLIA)
